We go through 37 molecules from article PMC10786891, “Massively parallel profiling of RNA-targeting CRISPR-Cas13d”.

Positions count from the first letter of the chain named. Numbers in names are those of the source.

B1: target 1 MT 5'PFS CAU 3'PFS CUU (mixed)
RNA 1: CACCCGUGCAAAAAUGCAGGGGUCUAAAACUGAGCGGAUAACCUCUCUAUGG
RNA 2: GGGAAUGGAUCCACAUCUACGAAUUCCAUCCAUAGAGAGGUUAUCCGCUCACUUAGAUCGGAAGAGCACACGU
B2: target 1 insG 3' of 10,insA 3' of 7 (mixed)
RNA 1: B1 RNA 1
RNA 2: GGGAAUGGAUCCACAUCUACGAAUUCGUACCAUAGAGAGGUUGAUCACGCUCACCGAGAUCGGAAGAGCACACGU
B3: target 1 MT 5'PFS GAC 3'PFS UUA (mixed)
RNA 1: B1 RNA 1
RNA 2: B1 RNA 2 with C27G, U29C, C52U, U54A
B4: target 1 MT 5'PFS CCU 3'PFS AAU (mixed)
RNA 1: B1 RNA 1
RNA 2: B1 RNA 2 with A28C, C52A, U53A
B5: target 1 MT 5'PFS AUG 3'PFS CCC (mixed)
RNA 1: B1 RNA 1
RNA 2: B1 RNA 2 with C27A, A28U, U29G, U53C, U54C
B6: target 1 MT 5'PFS GGA 3'PFS UCC (mixed)
RNA 1: B1 RNA 1
RNA 2: B1 RNA 2 with C27G, A28G, U29A, C52U, U53C, U54C
B7: target 1 MT 5'PFS GCU 3'PFS UUC (mixed)
RNA 1: B1 RNA 1
RNA 2: B1 RNA 2 with C27G, A28C, C52U, U54C
B8: target 1 MT 5'PFS GUG 3'PFS AAU (mixed)
RNA 1: B1 RNA 1
RNA 2: B1 RNA 2 with C27G, A28U, U29G, C52A, U53A
B9: target 1 MT 5'PFS CAA 3'PFS UCG (mixed)
RNA 1: B1 RNA 1
RNA 2: B1 RNA 2 with U29A, C52U, U53C, U54G
B10: target 1 MT 5'PFS GCU 3'PFS UUA (mixed)
RNA 1: B1 RNA 1
RNA 2: B1 RNA 2 with C27G, A28C, C52U, U54A
B11: target 1 MT 5'PFS UAA 3'PFS UCG (mixed)
RNA 1: B1 RNA 1
RNA 2: B1 RNA 2 with C27U, U29A, C52U, U53C, U54G
B12: target 1 MT 5'PFS GUA 3'PFS GGU (mixed)
RNA 1: B1 RNA 1
RNA 2: B1 RNA 2 with C27G, A28U, U29A, C52G, U53G
B13: target 1 MT 5'PFS GCU 3'PFS UUG (mixed)
RNA 1: B1 RNA 1
RNA 2: B1 RNA 2 with C27G, A28C, C52U, U54G
B14: target 1 MT 5'PFS GGA 3'PFS UCA (mixed)
RNA 1: B1 RNA 1
RNA 2: B1 RNA 2 with C27G, A28G, U29A, C52U, U53C, U54A
B15: target 1 G15C,A16U (mixed)
RNA 1: B1 RNA 1
RNA 2: B1 RNA 2 with C27G, A28U, U29A, A36U, G37C, U53C, U54G
B16: target 1 MT 5'PFS GAC 3'PFS UUU (mixed)
RNA 1: B1 RNA 1
RNA 2: B1 RNA 2 with C27G, U29C, C52U
B17: target 1 insU 3' of 13,insA 3' of 13 (mixed)
RNA 1: B1 RNA 1
RNA 2: B2 RNA 2 with G40U, U41A, U42G, G43U, A44U, U45A, C46U, A47C
B18: target 1 MT 5'PFS GCA 3'PFS UAU (mixed)
RNA 1: B1 RNA 1
RNA 2: B1 RNA 2 with C27G, A28C, U29A, C52U, U53A
B19: target 1 MT 5'PFS GGA 3'PFS CUC (mixed)
RNA 1: B1 RNA 1
RNA 2: B1 RNA 2 with C27G, A28G, U29A, U54C
B20: target 1 MT 5'PFS GAG 3'PFS AGA (mixed)
RNA 1: B1 RNA 1
RNA 2: B1 RNA 2 with C27G, U29G, C52A, U53G, U54A
B21: target 1 MT 5'PFS GCU 3'PFS UUU (mixed)
RNA 1: B1 RNA 1
RNA 2: B1 RNA 2 with C27G, A28C, C52U
B22: target 1 MT 5'PFS GAC 3'PFS UUC (mixed)
RNA 1: B1 RNA 1
RNA 2: B1 RNA 2 with C27G, U29C, C52U, U54C
B23: target 1 MT 5'PFS GUA 3'PFS GGC (mixed)
RNA 1: B1 RNA 1
RNA 2: B1 RNA 2 with C27G, A28U, U29A, C52G, U53G, U54C
B24: target 1 MT 5'PFS GAG 3'PFS AGU (mixed)
RNA 1: B1 RNA 1
RNA 2: B1 RNA 2 with C27G, U29G, C52A, U53G
B25: target 1 MT 5'PFS AGG 3'PFS UUC (mixed)
RNA 1: B1 RNA 1
RNA 2: B1 RNA 2 with C27A, A28G, U29G, C52U, U54C
B26: target 1 MT 5'PFS GUG 3'PFS AAC (mixed)
RNA 1: B1 RNA 1
RNA 2: B1 RNA 2 with C27G, A28U, U29G, C52A, U53A, U54C
B27: target 1 MT 5'PFS GUA 3'PFS UGU (mixed)
RNA 1: B1 RNA 1
RNA 2: B1 RNA 2 with C27G, A28U, U29A, C52U, U53G
B28: target 1 MT 5'PFS GGA 3'PFS UCG (mixed)
RNA 1: B1 RNA 1
RNA 2: B1 RNA 2 with C27G, A28G, U29A, C52U, U53C, U54G
B29: target 1 MT 5'PFS GGA 3'PFS UCU (mixed)
RNA 1: B1 RNA 1
RNA 2: B1 RNA 2 with C27G, A28G, U29A, C52U, U53C
B30: target 1 MT 5'PFS GUG 3'PFS AAG (mixed)
RNA 1: B1 RNA 1
RNA 2: B1 RNA 2 with C27G, A28U, U29G, C52A, U53A, U54G
B31: target 1 MT 5'PFS GGA 3'PFS CUA (mixed)
RNA 1: B1 RNA 1
RNA 2: B1 RNA 2 with C27G, A28G, U29A, U54A
B32: target 1 MT 5'PFS GUG 3'PFS AAA (mixed)
RNA 1: B1 RNA 1
RNA 2: B1 RNA 2 with C27G, A28U, U29G, C52A, U53A, U54A
B33: target 1 MT 5'PFS CAG 3'PFS CGU (mixed)
RNA 1: B1 RNA 1
RNA 2: B1 RNA 2 with U29G, U53G
B34: target 1 MT 5'PFS AGG 3'PFS UUG (mixed)
RNA 1: B1 RNA 1
RNA 2: B1 RNA 2 with C27A, A28G, U29G, C52U, U54G
B35: target 1 MT 5'PFS GUA 3'PFS GGG (mixed)
RNA 1: B1 RNA 1
RNA 2: B1 RNA 2 with C27G, A28U, U29A, C52G, U53G, U54G
B36: target 1 MT 5'PFS GAC 3'PFS UUG (mixed)
RNA 1: B1 RNA 1
RNA 2: B1 RNA 2 with C27G, U29C, C52U, U54G
B37: target 1 MT 5'PFS GUA 3'PFS GGA (mixed)
RNA 1: B1 RNA 1
RNA 2: B1 RNA 2 with C27G, A28U, U29A, C52G, U53G, U54A

This series has as its target T1, EsCas13d, nuclease-dead (Eubacterium siraeum, UniProt B0MS50, R295A;H300A;R849A;H854A).
T1 sequence: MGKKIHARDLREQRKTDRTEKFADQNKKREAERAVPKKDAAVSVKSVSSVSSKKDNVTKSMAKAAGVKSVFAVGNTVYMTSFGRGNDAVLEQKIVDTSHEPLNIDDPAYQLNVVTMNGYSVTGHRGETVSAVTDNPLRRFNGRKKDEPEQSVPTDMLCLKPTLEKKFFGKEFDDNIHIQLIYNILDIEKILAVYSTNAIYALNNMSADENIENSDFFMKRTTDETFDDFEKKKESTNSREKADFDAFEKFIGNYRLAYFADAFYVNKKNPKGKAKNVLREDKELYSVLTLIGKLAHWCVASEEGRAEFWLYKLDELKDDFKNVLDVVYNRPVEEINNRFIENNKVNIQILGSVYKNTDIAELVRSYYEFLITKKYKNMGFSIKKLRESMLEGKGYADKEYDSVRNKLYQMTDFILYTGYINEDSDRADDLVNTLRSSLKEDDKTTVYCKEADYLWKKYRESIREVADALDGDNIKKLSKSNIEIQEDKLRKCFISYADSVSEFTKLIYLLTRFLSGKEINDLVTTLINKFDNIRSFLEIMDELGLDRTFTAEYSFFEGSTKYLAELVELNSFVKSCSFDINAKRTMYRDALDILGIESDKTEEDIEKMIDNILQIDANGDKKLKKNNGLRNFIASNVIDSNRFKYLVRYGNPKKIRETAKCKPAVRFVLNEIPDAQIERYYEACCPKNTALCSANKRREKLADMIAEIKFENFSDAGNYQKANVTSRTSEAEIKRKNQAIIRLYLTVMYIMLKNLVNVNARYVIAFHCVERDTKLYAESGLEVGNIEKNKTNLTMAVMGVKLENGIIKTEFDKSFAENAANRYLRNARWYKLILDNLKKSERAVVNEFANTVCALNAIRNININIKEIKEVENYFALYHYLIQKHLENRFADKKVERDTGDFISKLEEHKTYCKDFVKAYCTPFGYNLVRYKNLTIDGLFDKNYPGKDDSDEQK
Kind of series: crRNA (strand 1, pre-loaded); Mg2+; 40 mM Tris-HCl pH 7.5, 150 mM NaCl, 6 mM MgCl2, 1 mM DTT, 0.1% Tween-20, 0.2 mg/ml BSA; 25 C; 10 min per concentration, then washed. As to conditions: tags: His6-TwinStrep-SUMO cleaved; N-terminal SNAP kept (SNAP-Surface 488); label: 3' end held by stalled T7 RNA polymerase.
Usually Kd stands for a measure of binding affinity in units of concentration. Consider B1, for which the dissociation constant Kd is ~48.5 nM.

In turn, B2 gave a Kd of 15.3 ± 0.6 nM.

Molecule B3 showed a Kd of 13.2 ± 4.3 nM.

B4 returned a Kd of 16.7 ± 4.65 nM.

B5: the Kd was ~40.5 nM.

Take B6: the Kd turned out to be 23 ± 7 nM.

B7 had a dissociation constant Kd of 36.5 ± 9 nM.

In turn, B8 showed a Kd of 22.1 ± 1.75 nM.

Take B9: the Kd worked out at 12.2 ± 3.6 nM.

B10: binding was put at a Kd of 22 ± 5 nM.

B11 had a dissociation constant Kd of 23 ± 6.5 nM.

The molecule B12 came in with a Kd of 20.7 ± 2 nM.

For B13, the affinity, expressed as Kd, was 61 ± 23.5 nM.

In turn, B14 had a Kd of 17.9 ± 5.7 nM.

In the case of B15, the affinity, expressed as Kd, was 47 ± 4 nM.

In turn, B16 showed an equilibrium dissociation constant (Kd) of 11 ± 4.5 nM.

B17 registered a Kd of 4.35 ± 0.17 nM.

With B18, the affinity, expressed as Kd, was 10.8 ± 1.45 nM.

B19 came in with a Kd of 47 ± 17.5 nM.

In the case of B20, binding was characterised by a dissociation constant (Kd) of 37 ± 13 nM.

Regarding B21, the dissociation constant Kd was 24.1 ± 3.8 nM.

In the case of B22, the Kd was 14.1 ± 4.25 nM.

Molecule B23 came in with a dissociation constant Kd of 7.25 ± 0.95 nM.

As to B24, binding was characterised by a dissociation constant (Kd) of 47.5 ± 16.5 nM.

For B25, the affinity, expressed as Kd, was 33 ± 11 nM.

Consider B26, for which the Kd stood at 23.9 ± 2.9 nM.

B27 registered a Kd of 19.1 ± 0.95 nM.

B28: the affinity, expressed as Kd, was 10.8 ± 1.2 nM.

Take B29: the Kd is 13.5 ± 2.5 nM.

In turn, B30 returned an equilibrium dissociation constant (Kd) of 23.1 ± 1.45 nM.

B31 displayed a Kd of 27 ± 6.5 nM.

As to B32, the Kd was determined as 30.3 ± 2.5 nM.

Molecule B33 came in with a Kd of 29.5 ± 10 nM.

Molecule B34 came in with a Kd of 40.5 ± 9.5 nM.

As to B35, binding was characterised by a dissociation constant (Kd) of 30.6 ± 3.7 nM.

With B36, the dissociation constant Kd came to 14.5 ± 4 nM.

Take B37: the Kd was 15.8 ± 2.45 nM.
